The test system of data set [1] is HeyA8 cells. The data set is described as follows: Cisplatin dose-response, MTS viability with or without miR-130b. The conditions noted are these: 72 hours. It is filed as cell-based, human. The protocol:
FIGS. 4A-4B: Impact of miR-130b on Cisplatin Dose-Response Curves. Cisplatin treated HeyA8 cells with either miR-130b or a negative control proliferation and apoptosis assays were measured 72 hours following treatment with cisplatin at the indicated concentrations. The assays were measured using MTS (FIG. 4A) and Caspase-Glo 3/7 (FIG. 4B) assays. The IC50 (concentration needed to reach 50% viability) values are shown beside the MTA graph. To assess the impact of miR-130b on cisplatin treatment, HEYA8 cells transfected with pmiR-130b, Negative control or nothing at a density of 2500 cells/well. Cells were treated with cisplatin across a range of concentrations from 0-10 μg/mL. After 72 hours, cells were assayed for growth and apoptosis activity using MTS and Caspase 3/7 assays from Promega as described before. Each sample was normalized to the parental non treated sample. Refractory disease that results from resistance to chemotherapy is a major problem for many ovarian cancer patients. The chemotherapy drug, cisplatin, works by intercalating the genomic DNA of tumor cells causing massive DNA damage that in turn causes the cells to undergo apoptosis or programmed cell […] et al. 2003). […] Seventy-two hours following cisplatin treatment, proliferation and caspase activity were measured using the same MTS and Caspase 3/7 assays used previously.

Data set [2] concerns p63/p53/p73 network genes in HeyA8 cells. The data set is described as follows: qPCR gene expression after p53 siRNA with and without miR-130b. It is filed as cell-based, human. As to conditions: HeyA8, siRNA to p53, 72 hrs post-transfection. An excerpt: FIGS. 6A-6B: Impact of siRNA against p53 on miR-130b-regulated patterns of gene expression. Since many of the up regulated genes that were induced by miR-130b were also downstream transcriptional targets of p53, transient, siRNA knockdown of p53 was used with and without miR-130b present in HeyA8 (FIG. 6A) and OVCAR8 (FIG. 6B) cells and used qPCR to measure our gene set again with respect to p53. The goal was to dissect the p53-dependent and independent impacts of miR-130b in the p53-wild type HeyA8.
For gene expression analysis of target genes, 75 ng of total RNA from each sample was reverse transcribed using the qScript cDNA Super mix from Quanta Biosciences (95048). All RT-qPCR was carried out with the Veriti OneStep from Applied Biosystems. All qPCR experiments used the […] and Power SYBR Green Master Mix (Applied Biosystems). 18S was used as the endogenous control for all targets.
To determine the role of p53 in miR-130b gene regulation the HEYA and OVCAR8 cell lines were co-transfected with miR-130b and p53 siRNA (IDT_HSC.RNAI.N000546.12.2, 5′-rGrGrA rUrUrU rCrArU rCrUrC rUrUrG rUrArU rArUrGr A-3′, SEQ ID NO: 27), 5′-rUrCrA rUrCrA rUrArU rArCrA rArGrA rGrArU rGrArA rArUrC rCrUrC-3′, SEQ ID NO: 28) 72 hrs post-transfection gene expression was assayed by Q-PCR as described before.
To determine which of these gene expression changes are dependent on p53 patterns of gene expression in miR-130b over-expressing HeyA8 cells were compared in the presence of a siRNA to p53 (siP53).
(In general: In qPCR the cycle at which signal appears reflects the starting amount.)

On to `N.N.[Cl][Pt][Cl]` [cisplatin], for which the “cisplatin IC50 (concentration needed to reach 50% viability)” value in data set [1] (HeyA8 with miR-130b) was roughly 9.9 µg/mL; in data set [1] (HeyA8 with negative miRNA control (NC)) it was roughly 18.3 µg/mL.

B1: siP53: siRNA to p53 (SEQ ID NO: 27 and 28) (nucleic acid)
chain 1: RGRGRARURURURCRARURCRURCRURURGRURARURARURGR
chain 2: RURCRARURCRARURARURARCRARARGRARGRARURGRARARARURCRCRURC
modifications: listed as RNA, chemistry not fully specified
With B1, in data set [2], the MDM2 expression level result is on record as “down-regulated”, the RB1 expression level result is “up-regulated”, the p21 expression level entry is “down-regulated” and the p53 expression level result is reported as “down-regulated”.

The record behind these values is patent US9192622B2, “MicroRNA-130a,b as a tumor suppressor and sensitizing agent for chemotherapy” (University of Houston, priority 2011, dated 2015).
